{"source": "patent US20190151483A1", "about": "“METHODS OF MAKING 18F-LABELED PRECURSORS AND PEPTIDES, LABELED C-MET BINDING PEPTIDES, AND METHODS OF USE THEREOF” (The United States of America, as Represented by the …, priority 2016, published 2019)", "molecules": {"B1": {"name": "[^18F]albumin: albumin radiolabeled by conjugating Compound 3 to pendant amine groups (protein, UniProt P02770 25-608, looked up)", "Albumin": "EAHKSEIAHRFKDLGEQHFKGLVLIAFSQYLQKCPYEEHIKLVQEVTDFAKTCVADENAENCDKSIHTLFGDKLCAIPKLRDNYGELADCCAKQEPERNECFLQHKDDNPNLPPFQRPEAEAMCTSFQENPTSFLGHYLHEVARRHPYFYAPELLYYAEKYNEVLTQCCTESDKAACLTPKLDAVKEKALVAAVRQRMKCSSMQRFGERAFKAWAVARMSQRFPNAEFAEITKLATDVTKINKECCHGDLLECADDRAELAKYMCENQATISSKLQACCDKPVLQKSQCLAEIEHDNIPADLPSIAADFVEDKEVCKNYAEAKDVFLGTFLYEYSRRHPDYSVSLLLRLAKKYEATLEKCCAEGDPPACYGTVLAEFQPLVEEPKNLVKTNCELYEKLGEYGFQNAVLVRYTQKAPQVSTPTLVEAARNLGRVGTKCCTLPEAQRLPCVEDYLSAILNRLCVLHEKTPVSEKVTKCCSGSLVERRPCFSALTVDETYVPKEFKAETFTFHSDICTLPDKEKQIKKQTALAELVKHKPKATEDQLKTVMGDFAQFVDKCCKAADKDNCFATEGPNLVARSKEALA", "modifications": "18F-labeled via Compound 3", "notes": "albumin radiolabeled by conjugating Compound 3 to pendant amine groups"}}, "key": {"[1]": {"test_system": "SNU-16 (moderate Met) xenografts", "format": "in vivo, mouse"}, "[2]": {"molecular_target": "T1, c-MET receptors (Homo sapiens, UniProt P08581)", "T1 construct": "endogenous in cells; host or cells: MKN-45, SNU-16 or U87-MG cells", "T1 sequence (P08581 25-1390)": "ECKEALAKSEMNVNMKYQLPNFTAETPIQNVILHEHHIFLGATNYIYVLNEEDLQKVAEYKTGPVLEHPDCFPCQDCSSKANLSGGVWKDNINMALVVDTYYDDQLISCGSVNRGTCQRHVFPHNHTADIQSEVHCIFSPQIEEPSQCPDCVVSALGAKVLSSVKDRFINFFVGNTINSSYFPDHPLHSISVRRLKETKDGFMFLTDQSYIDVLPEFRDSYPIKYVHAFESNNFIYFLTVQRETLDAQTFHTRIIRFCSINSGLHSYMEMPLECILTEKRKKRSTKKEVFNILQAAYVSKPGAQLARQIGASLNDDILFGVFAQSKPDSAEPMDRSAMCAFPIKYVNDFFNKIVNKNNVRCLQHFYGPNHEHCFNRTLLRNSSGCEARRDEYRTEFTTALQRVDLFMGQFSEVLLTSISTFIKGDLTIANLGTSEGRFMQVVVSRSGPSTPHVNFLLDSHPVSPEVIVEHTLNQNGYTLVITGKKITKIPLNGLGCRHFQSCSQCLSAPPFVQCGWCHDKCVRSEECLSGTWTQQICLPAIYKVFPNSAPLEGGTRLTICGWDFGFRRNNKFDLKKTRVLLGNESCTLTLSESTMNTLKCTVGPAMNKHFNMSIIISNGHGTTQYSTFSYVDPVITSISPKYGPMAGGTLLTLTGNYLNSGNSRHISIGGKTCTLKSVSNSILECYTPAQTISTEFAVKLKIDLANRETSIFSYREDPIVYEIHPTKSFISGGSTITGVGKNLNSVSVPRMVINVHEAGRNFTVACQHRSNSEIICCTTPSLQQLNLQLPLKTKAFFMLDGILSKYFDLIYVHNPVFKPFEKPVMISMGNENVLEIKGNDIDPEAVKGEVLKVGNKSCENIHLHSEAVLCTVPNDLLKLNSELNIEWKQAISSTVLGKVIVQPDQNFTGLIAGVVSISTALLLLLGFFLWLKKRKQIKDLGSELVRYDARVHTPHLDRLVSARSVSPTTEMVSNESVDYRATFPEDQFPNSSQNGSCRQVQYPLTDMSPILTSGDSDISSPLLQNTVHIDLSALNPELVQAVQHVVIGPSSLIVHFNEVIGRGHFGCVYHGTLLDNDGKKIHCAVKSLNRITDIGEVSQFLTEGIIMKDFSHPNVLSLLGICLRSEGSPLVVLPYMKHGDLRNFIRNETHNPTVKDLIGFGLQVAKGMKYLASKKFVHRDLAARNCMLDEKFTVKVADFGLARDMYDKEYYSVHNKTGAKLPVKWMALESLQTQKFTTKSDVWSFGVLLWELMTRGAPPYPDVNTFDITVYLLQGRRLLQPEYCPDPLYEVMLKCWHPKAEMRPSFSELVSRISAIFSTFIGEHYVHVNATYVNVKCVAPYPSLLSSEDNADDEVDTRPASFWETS", "experiment": "In vitro saturation binding assay with MKN-45, SNU-16 or U87-MG cells", "protocol": "In vitro saturation assays were performed to determine the binding affinity of Compound 1 for c-MET receptors. Increasing concentrations of Compound 1 were incubated with MKN-45, SNU-16 or U87-MG cells. Non-specific binding was determined in the presence of an unlabeled Met peptide (10^−5 M). Bound peptide was separated from free peptide and the radioactive content was determined. Data was analyzed using a one site binding hyperbola. […] The binding constant was determined to be 3.9 nM. In addition, the estimated Met expression levels (2.4×10^6 receptors per cell) were consistent with known expression in MKN-45, SNU-16, and U87-MG cells. […] (data not shown)"}, "[3]": {"test_system": "U87-MG (low Met) xenografts", "format": "in vivo, mouse"}, "[4]": {"test_system": "MKN-45 (high Met) xenografts"}, "[5]": {"test_system": "human prostate cancer cells with known high PSMA expression", "experiment": "In vivo biodistribution and PET images in xenograft mouse models of high-PSMA prostate tumor cell line", "details": "data not shown"}, "[6]": {"details": "reported labeled albumin; cited from earlier work"}}, "note": "Bridge positions count the residues as written; N and C are the ends. Ends that are not written are not given here.", "data": [{"molecule": "Compound 1: 18F-labeled c-Met peptide; cyclic peptide of SEQ ID NO: 1 reacted with [18F]fluoronicotinic acid-2,3,5,6-tetrafluorophenyl ester (AGSCYCSGPPRFECWCYETEGTGGGK; disulfide 6-14, 4-16; also: [18F]fluoronicotinoyl conjugated via tetrafluorophenyl ester, site not given here)", "values": [{"measurement": "PET tumor discernibility", "setting": "[1]; SNU-16 tumors", "value": "discernable"}, {"measurement": "Tumor:Muscle ratio over time course", "setting": "[1]; mouse, in vivo", "value": "7:1-18:1"}, {"measurement": "fold decrease of T:M vs MKN-45 T:M", "setting": "[1]; mouse, in vivo", "value": "2-60 fold"}, {"measurement": "fold decrease of tumor uptake vs MKN-45 tumors", "setting": "[1]; mouse, in vivo", "value": "2-6 fold"}, {"measurement": "specific binding to Met", "setting": "[2]; MKN-45 cells, non-specific binding with unlabeled Met peptide 10^−5 M", "value": "> 90", "unit": "%"}, {"measurement": "Kd", "setting": "[2]; MKN-45 cells, saturation assay, one site binding hyperbola, read-out: binding constant", "value": 3.9, "unit": "nM"}, {"measurement": "ability to distinguish c-MET concentrations", "setting": "[2]; SNU-16 and U87-MG cell lines, data not shown", "value": "can distinguish c-MET concentrations"}, {"measurement": "estimated Met expression levels", "setting": "[2]; from saturation binding", "value": "2.4×10^6 receptors per cell"}, {"measurement": "PET tumor discernibility", "setting": "[3]; U87-MG tumors", "value": "more difficult to distinguish"}, {"measurement": "Tumor:Muscle ratio over time course", "setting": "[3]; mouse, in vivo", "value": "3:1-5:1"}, {"measurement": "fold decrease of tumor uptake vs MKN-45 tumors", "setting": "[3]; mouse, in vivo", "value": "3-40 fold"}, {"measurement": "PET visualization", "setting": "[4]; MKN xenografts, 30 to 120 min post-injection", "value": "tumors, kidneys and bladder could be visualized"}, {"measurement": "PET tumor discernibility", "setting": "[4]; MKN-45 and SNU-16 xenografts, images at 30, 60, 120 min", "value": "discerned as early as 30 min"}, {"measurement": "decrease of T:M ratio on blocking with unlabeled Met peptide", "setting": "[4]; MKN-45 xenografts, compared to unblocked", "value": 65, "unit": "%"}, {"measurement": "decrease of tumor uptake from 30 to 120 min", "setting": "[4]; mouse, in vivo", "value": "approximately 37%"}, {"measurement": "tumor retention and non-target clearance", "setting": "[4]; mouse, in vivo", "value": "highly retained in MKN-45 tumors (high Met expression) and rapidly cleared from non-target tissue"}]}, {"molecule": "O=C(O)CC[C@H](NC(=O)N[C@@H](CCCCNC(=O)c1ccc([18F])nc1)C(=O)O)C(=O)O", "note": "[[^18F]DCFPyL]", "values": [{"measurement": "biodistributions and PET images vs previously reported results", "setting": "[5]", "value": "comparable with previously reported results"}]}, {"molecule": "B1", "values": [{"measurement": "blood pool imaging property", "setting": "[6]", "value": "excellent blood pool imaging property"}]}]}
